This series has as its system MS2 coat protein. The series is described as follows: apparent KD of MS2 coat protein; designed switch direction (-1 OFF switch, 1 ON switch): -1; higher = weaker reporter binding. In a few lines: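 Stalled E. coli RNA polymerase transcribed designed RNA switches on Illumina chips, which were then titrated with SNAP-549-labelled MS2 coat protein, doubling from 0.7 or 1.5 nM to 3 µM. Steps lasted from 0.8–1.5 h at the lowest concentration to 10–20 min at the highest. The apparent KD is each design's median over clusters of curve-fitted normalised fluorescence.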

The mark [1] stands for this setting: Eterna round: R95, input ligand: microRNA oligo, concentration not stated.
Where [2] appears, read: Eterna round: R95, input ligand: FMN 200 uM.
The mark [3] stands for this setting: Eterna round: R95, input ligand: none.
The mark [4] stands for this setting: input ligand: microRNA oligo, concentration not stated.

For “UUAUUUUUUGAGGAUAUGCGACGUUUUUUCGUCGUAGAAGGCGAUACAUGAGGAUCACCCAUGUUUAUGGGCAU [LRO-Ex6-13] (puzzle: Exclusion 6)”, under setting [1], the “apparent KD of MS2 coat protein” value amounted to 73.8 nM.
As for “UUCCAGACAGGAUAUCUAGUGAGCAACAUGAGGAUCACCCAUGUGACCAUCACCGCCCGCAGAGAAGGGUCAACAG [Inbilaus] (puzzle: Exclusion 5)”, the “apparent KD of MS2 coat protein” value under setting [2] turned out to be 55.4 nM, the “apparent KD of MS2 coat protein” value under setting [1] is 41.1 nM and the “apparent KD of MS2 coat protein” value under setting [3] is 40.2 nM.
Turning to “UUCCGACAUGAGGAUCACCCAUGUAAGGAUAUGCACUAGAGGACAAACCCUCUUAACGGCAGAAGGUGCAGGGA [Solaleisra] (Eterna round: R97, puzzle: Exclusion 1)”, the “apparent KD of MS2 coat protein” value was 40.9 nM (input ligand: FMN 200 uM) and 18 nM (input ligand: none).
Take “UUCCUCUUAACAUGAGGAUCACCCAUGUAUUAUUUGGUAAUUGAGGAUAUAUUUUUAAUGUUUAUAUAGAAGGCAAAUACAGUU [JR_ExcNG3_Sub094] (Eterna round: R96, puzzle: Exclusion NG 3)”: the “apparent KD of MS2 coat protein” value under setting [4] is 36.1 nM.
“UUCGAGGCAGGAUAUGCGUAGCCACGGAGGAUCACCAAGUAACAUGAGGAUCACCCAUGUAGAAGGGCUAGAGC [Eternabot (L1) Solution 26] (Eterna round: R97, puzzle: Exclusion 2)”: the “apparent KD of MS2 coat protein” value worked out at 60.1 nM (input ligand: FMN 200 uM) and 76.4 nM (input ligand: none).
With “UUCGUGCAGCUUUGCUGUACGAGUACAUGAGGAUCACCCAUGUAGGAUAUGGUACGCUUUGCGUGCCAGAAGGACGUGCGUUAG [salish99_ExNG3_r04_002] (Eterna round: R96, puzzle: Exclusion NG 3)”, the “apparent KD of MS2 coat protein” value was found to be 73.4 nM (input ligand: FMN 200 uM), 34.1 nM under setting [4] and 42.1 nM (input ligand: none).
The corresponding values for “UUCGUGCAGCUUUGCUGUACGCGUACAUGAGGAUCACCCAUGUAGGAUAUGGUAGGCAAAGCUUACUAGAAGGAUAGAGUGAUC [Mat - Exclusion NG 3 - Mod of JL - D74] (Eterna round: R96, puzzle: Exclusion NG 3)” are 277 nM, 92.8 nM and 122 nM.
Turning to “UUCUGGACAGGAUAUGUACUUGAGCACUUGAGGAUCACCCAAGUCUUCAAGUACUCAGGCACAGAAGGGUUAAUUU [jl-ex5.4.66 ViennaUCT mod] (Eterna round: R97, puzzle: Exclusion 5)”, the “apparent KD of MS2 coat protein” value by setting is: (input ligand: FMN 200 uM) 58.9 nM; (input ligand: none) 25.4 nM.
The matching figures for “UUCUUCUCUGUUAGGAUAUUCUCCGCAGAUGCCUGGAAGAAGGGACAUGAGGAUCACCCAUGUAGUGUAAGCUA [Eternabot (L2) Solution 58] (Eterna round: R97, puzzle: Brourd's mod of Exclusion 4)”: 40.6 nM and 62.8 nM.
Turning to “UUGACGGCAGGAUAUACAUGAGGAUCACCCAUGUAAAUUUUUCGUUUAACUUGAAUGUGUAGAAGGGCCAAACC [Ex3 #77] (Eterna round: R97, puzzle: Exclusion 3)”, the “apparent KD of MS2 coat protein” value by setting is: (input ligand: FMN 200 uM) 19.4 nM; (input ligand: none) 20.4 nM.
On to “UUGCAGUCGUCAGGAUAUAGUAUUACGGCCUUUUAUUUCUUCAUACAUGAGGAUCACCCAUGUCGCUAGAAGGGAUUAUCGAUU [salish99_ExNG2_r04_105] (Eterna round: R96, puzzle: Exclusion NG 2)”, for which the “apparent KD of MS2 coat protein” value turned out to be 17.8 nM (input ligand: FMN 200 uM), 14.2 nM under setting [4] and 22.2 nM (input ligand: none).
For the sequence “UUGCCUAGUGUUAGGAUAUGCGACGGGUGACCGUUGCAGAAGGAACAUGAGGAUCACCCAUGUUUAAUAAAAUC [JL-BMX4-4.44 ViennaUCT mod] (Eterna round: R97, puzzle: Brourd's mod of Exclusion 4)”, the “apparent KD of MS2 coat protein” value by setting is: (input ligand: FMN 200 uM) 35.9 nM; (input ligand: none) 13.2 nM.
On to “UUGCUCCCUUAGUACUCUACAAGUUUUUUGUUCGUUUUAACAUGAGGAUCACCCAUGUCUAGUGGAUCUGAUCGGGU [JL ViennaUCT Isreen mod 5] (puzzle: Sensor v3, turn-off variant 2)”, for which the “apparent KD of MS2 coat protein” value runs as follows: under setting [2], 172 nM; under setting [1], 336 nM; under setting [3], 178 nM.
Turning to “UUGGUUGUGGUAGGAUAUCCGUUGGAAACCGUCGGAGAAGGACCACAGUCACUGGGUCCUUGUCUGGUGGACUGGAAUCACCAU [pwkr exNG1 F6.15] (Eterna round: R96, puzzle: Exclusion NG 1)”, the “apparent KD of MS2 coat protein” value is, setting by setting: (input ligand: FMN 200 uM) 153 nM; under setting [4], 172 nM; (input ligand: none) 184 nM.
Turning to “UUGUACAUAGGAUAUAGUUGUUUGUACAUGAGGAUCACCCAUGUUAUGUAUGUUUUGUUUCUAGAAGGAUGUUGAU [JR_E5_Sub003] (puzzle: Exclusion 5)”, the “apparent KD of MS2 coat protein” value under setting [1] turned out to be 47.1 nM.
On to “UUGUUACAUGAGGAUCACCCAUGUGAGGAUAUGAGGGUUAGCUUAAAUGGGCUGACUUUCAGAAGGCACAUGAA [JR_Ex1_Sub058] (Eterna round: R97, puzzle: Exclusion 1)”, for which the “apparent KD of MS2 coat protein” value came to 327 nM (input ligand: FMN 200 uM) and 235 nM (input ligand: none).
With “UUGUUAUAUGUAGGAUAUGCAUAUUAUUAUUAUGCAGAAGGACAUGAGGAUCACCCAUGUGUAUUGUUAUUAUAUAUUAUAUAU [Title] (Eterna round: R96, puzzle: Exclusion NG 1)”, the “apparent KD of MS2 coat protein” value under setting [4] worked out at 16.5 nM.
Still for that read-out and setting: the result for “UUGUUAUAUGUAGGAUAUGCAUAUUAUUAUUGUGCAGAAGGACAUGAGGAUCACCCAUGUAUAUUAUUAUUAUAUAUUAUAUAU [Title] (Eterna round: R96, puzzle: Exclusion NG 1)” reads 26.1 nM; that for “UUGUUAUAUGUAGGAUAUGCAUAUUGUUAUUAUGCAGAAGGACAUGAGGAUCACCCAUGUAUAUUAUUAUUAUAUAUUAUAUAU [Title] (Eterna round: R96, puzzle: Exclusion NG 1)”, 22.5 nM.
For the sequence “UUGUUAUGUGUAGGAUAUGCGUGUUAUUAUUAUGCAGAAGGACAUGAGGAUCACCCAUGUGUAUUAUUAUUAUAUAUUAUAUAU [Title] (Eterna round: R96, puzzle: Exclusion NG 1)”, the “apparent KD of MS2 coat protein” value (input ligand: FMN 200 uM) stood at 20 nM, the “apparent KD of MS2 coat protein” value under setting [4] came to 15.8 nM and the “apparent KD of MS2 coat protein” value (input ligand: none) was determined as 19.9 nM.
On to “UUGUUGUAUGUAGGAUAUGCAUAUUAUUGUUAUGCAGAAGGACAUGAGGAUCACCCAUGUAUAUUAUUAUUAUAUGUUAUAUAU [Title] (Eterna round: R96, puzzle: Exclusion NG 1)”, for which the “apparent KD of MS2 coat protein” value runs as follows: (input ligand: FMN 200 uM) 35.1 nM; under setting [4], 21 nM; (input ligand: none) 28 nM.
For “UUUAAACUUACAAUCUUCGCUGGCAUGCUUGUGCCAGCUACAUGAGGAUCACCCAUGUUUUUUGCUCGUCUUAUUCU [Usre] (puzzle: Sensor v3, turn-off variant 2)”, the “apparent KD of MS2 coat protein” value by setting is: under setting [2], 23.5 nM; under setting [3], 25.1 nM.
Consider “UUUAAUGGAAUUAAGAUCACAUGAGGAUCACCCAUGUAUAUAUAGGAUAUCAGCUCGAUUAGAGCUGAGAAGGAUAUAUACAUA [ExNG3/6-B1] (Eterna round: R96, puzzle: Exclusion NG 3)”, for which the “apparent KD of MS2 coat protein” value reads like this: (input ligand: FMN 200 uM) 31.6 nM; under setting [4], 199 nM; (input ligand: none) 91.6 nM.

(Values after the supplement of paper PMC9170038.)
